How the values were obtained:
Dyn1a^WT-eGFP = target: T1, Dyn1a^WT-eGFP (UniProt Q05193 1-864); assay: co-IP; GFP-nAb agarose, 0.5 mg A549 post-nuclear fraction, 2 h at 4 °C; beads washed with buffer 3 (0.5% Triton X-100, 25 mM HEPES, 150 mM KCl, 1 mM MgCl2, 2 mM EGTA, pH 7.4); immunoblot; settings: partners not purified
T1 construct: dynamin-1 cDNA, C-terminal splice variant "a" (Dyn1a), in the retroviral vector pMIEG; also called Dyn1a-eGFP; Dyn1-eGFP; source: A549 Dyn1^KO cells, retroviral transduction, in lysate (post-nuclear fraction); not shown: eGFP, C-terminal, kept
T1 sequence (looked up): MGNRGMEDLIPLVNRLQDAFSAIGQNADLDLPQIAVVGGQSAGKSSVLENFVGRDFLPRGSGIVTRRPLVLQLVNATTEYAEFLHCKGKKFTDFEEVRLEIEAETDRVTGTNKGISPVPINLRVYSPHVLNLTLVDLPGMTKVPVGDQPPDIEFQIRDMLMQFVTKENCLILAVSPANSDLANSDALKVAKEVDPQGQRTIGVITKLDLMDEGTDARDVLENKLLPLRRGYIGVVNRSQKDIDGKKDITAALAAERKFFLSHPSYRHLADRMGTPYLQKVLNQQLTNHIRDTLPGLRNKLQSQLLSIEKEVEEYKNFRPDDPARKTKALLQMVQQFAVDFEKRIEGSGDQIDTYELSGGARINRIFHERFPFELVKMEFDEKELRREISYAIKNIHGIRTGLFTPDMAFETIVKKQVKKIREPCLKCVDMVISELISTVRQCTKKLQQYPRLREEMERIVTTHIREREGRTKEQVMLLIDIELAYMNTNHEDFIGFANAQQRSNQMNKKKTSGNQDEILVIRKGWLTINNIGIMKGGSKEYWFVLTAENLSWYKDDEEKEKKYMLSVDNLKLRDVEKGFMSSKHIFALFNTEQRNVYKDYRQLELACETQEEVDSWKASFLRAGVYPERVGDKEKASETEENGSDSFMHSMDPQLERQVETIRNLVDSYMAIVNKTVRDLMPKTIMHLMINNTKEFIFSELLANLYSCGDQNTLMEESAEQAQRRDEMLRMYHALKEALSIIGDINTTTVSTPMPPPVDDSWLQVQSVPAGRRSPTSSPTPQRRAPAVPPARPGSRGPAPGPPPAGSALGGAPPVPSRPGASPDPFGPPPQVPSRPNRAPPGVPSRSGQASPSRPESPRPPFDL

Dyn1a^S774/8A-eGFP = target: T2, Dyn1a^S774/8A-eGFP (UniProt Q05193 1-864, S774/8A | S774/8A); assay: as above; settings: partners not purified
T2 construct: dynamin-1 cDNA, C-terminal splice variant "a" (Dyn1a), in the retroviral vector pMIEG, with S774 and S778 changed to alanine; also called Dyn1^S774/8A-eGFP; Dyn1^S774/8A; source: A549 Dyn1^KO cells, retroviral transduction, in lysate (post-nuclear fraction); not shown: eGFP, C-terminal, kept
T2 sequence (looked up): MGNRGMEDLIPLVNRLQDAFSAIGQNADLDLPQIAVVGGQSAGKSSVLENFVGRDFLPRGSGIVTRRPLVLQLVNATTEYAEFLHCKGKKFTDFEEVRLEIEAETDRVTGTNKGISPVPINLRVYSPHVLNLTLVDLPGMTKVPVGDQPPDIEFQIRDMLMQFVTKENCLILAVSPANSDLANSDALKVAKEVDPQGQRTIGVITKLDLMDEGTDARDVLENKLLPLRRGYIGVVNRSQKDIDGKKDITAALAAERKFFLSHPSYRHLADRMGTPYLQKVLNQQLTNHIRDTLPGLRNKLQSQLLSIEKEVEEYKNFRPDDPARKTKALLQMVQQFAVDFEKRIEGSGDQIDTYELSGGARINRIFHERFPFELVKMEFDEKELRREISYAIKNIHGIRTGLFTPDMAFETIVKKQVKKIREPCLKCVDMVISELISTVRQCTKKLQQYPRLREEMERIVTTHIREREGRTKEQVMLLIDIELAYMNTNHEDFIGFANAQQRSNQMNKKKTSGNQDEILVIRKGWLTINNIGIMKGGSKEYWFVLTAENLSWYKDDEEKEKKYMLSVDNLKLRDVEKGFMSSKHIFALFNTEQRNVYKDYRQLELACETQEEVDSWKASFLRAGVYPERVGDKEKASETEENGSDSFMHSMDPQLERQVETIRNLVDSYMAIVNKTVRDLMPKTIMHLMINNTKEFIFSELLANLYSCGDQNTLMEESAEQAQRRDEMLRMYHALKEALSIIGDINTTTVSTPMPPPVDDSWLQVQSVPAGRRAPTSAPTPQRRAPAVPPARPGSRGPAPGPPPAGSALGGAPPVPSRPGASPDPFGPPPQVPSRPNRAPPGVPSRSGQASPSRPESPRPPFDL

B1: sorting nexin 9, endogenous in A549 cells (natural protein, human (endogenous in A549), UniProt Q9Y5X1 1-595, looked up)
chain: MATKARVMYDFAAEPGNNELTVNEGEIITITNPDVGGGWLEGRNIKGERGLVPTDYVEILPSDGKDQFSCGNSVADQAFLDSLSASTAQASSSAASNNHQVGSGNDPWSAWSASKSGNWESSEGWGAQPEGAGAQRNTNTPNNWDTAFGHPQAYQGPATGDDDDWDEDWDGPKSSSYFKDSESADAGGAQRGNSRASSSSMKIPLNKFPGFAKPGTEQYLLAKQLAKPKEKIPIIVGDYGPMWVYPTSTFDCVVADPRKGSKMYGLKSYIEYQLTPTNTNRSVNHRYKHFDWLYERLLVKFGSAIPIPSLPDKQVTGRFEEEFIKMRMERLQAWMTRMCRHPVISESEVFQQFLNFRDEKEWKTGKRKAERDELAGVMIFSTMEPEAPDLDLVEIEQKCEAVGKFTKAMDDGVKELLTVGQEHWKRCTGPLPKEYQKIGKALQSLATVFSSSGYQGETDLNDAITEAGKTYEEIASLVAEQPKKDLHFLMECNHEYKGFLGCFPDIIGTHKGAIEKVKESDKLVATSKITLQDKQNMVKRVSIMSYALQAEMNHFHSNRIYDYNSVIRLYLEQQVQFYETIAEKLRQALSRFPVM
notes: sorting nexin 9, endogenous; also called SNX9; source: endogenous, A549 (Dyn1^KO or Dyn2^KO, reconstituted) lysate
ratio of SNX9 binding to Dyn1 versus Dyn2 (Dyn1a^WT-eGFP): 1.7
ratio of SNX9 binding to Dyn1^S774/8A versus Dyn1^WT (Dyn1a^S774/8A-eGFP): 3.6

— paper PMC5927468, “A noncanonical role for dynamin-1 in regulating early stages of clathrin-mediated endocytosis in non-neuronal cells” (PLoS Biology, 2018)
